This note sets out measurements from US20250084127.

Data set [1] addresses seco-wollamide B1-EG.
In data set [2] the target is T1, crude peptide 1 (EG-surugamide B precursor) (not fully specified).
T1 chain: IAIVKIFL

For data set [3], the target named is peptide having a polyethylene glycol (PEG) chain therein (EG at the C terminal).
Data set [4] concerns the target seco-desprenylagaramide C-EG.
The target of data set [5] is tyrocidine A precursor having EG as a leaving group.

B1: recombinant WolJ (protein)
chain: MNHKVHHHHHHMSAEAKGRGTTISLPLDRLAKEHSVVGGQLAVHHQGTTHTWAFGEEEHDSGRPVSVGTAFALGSTTKALTATSVLQLVSDGDLDLDSPVKTWIEERGAAADHPALNATLRQLLSHTAGLPSDHFDEEAPSLRRWLAGFLTSGDERARASWPTPGSFSYSNIGYAVAGRAVEAATGLPWWQAVRDYLLTPLGTGIGLLPGAPQDGRPLTAAPGHTAHTTPDGRTVVHVVQSTTDAGSAPSGGLAGSAADLVRFARLHLEEPGDLDRSAVADPSVLREMAQPVTGAEPFGLADGWGLGLGHFGPAGRHWLGHDGTLDGSTCHLRIEPRQGTVVALTTNTSSGLALWDSVVEELRECGLDIGLHAPQPPLAAPAATFAECTGTYRNGDLAVTVGIEDQHIVLGLPNGQRDSVAPHTGLFFSGRPGNASLFLGRFVKDVATGEIRALQYSGRTLTREALTARN
On to B1, for which the “peptide cyclization (LC-MS of the reaction mixture)” value in data set [1] is given as “the substrate disappeared by an enzymatic reaction to generate a cyclized product (wollamide B1)”.

B2: recombinant SurE (protein)
chain: MGSSHHHHHHSSGLVPRGSHMGAEGAERDAVGALFEELVREHRVTGAQLSVYRDGALSEYATGLASVRTGEPVTPRTGFPFGSVTKFLTAELVMQFVCDGDLDLDDPLAGLLPDLGRAAGPPLGTATVRQLLSHTAGVVDSIEYDEMRGPSYRRFAAACARQPALFPPGLAFSYSNTGYCLLGAVIEAASGMDWWTAMDSCLLRPLGIEPAFLHDPRPGQGGAARPVAEGHALRAGGERAEHVDHMASLSLAAAGGLVGSATDLVTAARPHLADRKTFAQHDLLPEDAVLAMRTCVPDAEPFGLADGWGLGLMRHGTGDGAWYGHDGAVGGASCNLRIHPDRSLALALTANSTAGPKLWEALVARLPEAGLDVGHYALPVPDSAPLAPDAGHLGTYANGDLELMVTHDAAGDLFLTRESYSDYRLSLHEDDLFVARSGEPGALPITGRFVREHPAGPVALLQYGGRAMHRL
On to B2, for which the “peptide cyclization (LC-MS of the reaction mixture)” value in data set [2] was “a substrate (crude peptide 1, EG-SB precursor, m/z 960.5 [+H]) disappeared by the action of SurE to generate a cyclic peptide (surugamide B (SB), m/z 898.5 [+H])”. Also, the “peptide cyclization (reverse-phase HPLC / LC-MS)” value in data set [3] is reported as “SurE efficiently circularized also a peptide having a PEG chain therein”.

B3: SurE (G235L) (protein)
chain: MGSSHHHHHHSSGLVPRGSHMGAEGAERDAVGALFEELVREHRVTGAQLSVYRDGALSEYATGLASVRTGEPVTPRTGFPFGSVTKFLTAELVMQFVCDGDLDLDDPLAGLLPDLGRAAGPPLGTATVRQLLSHTAGVVDSIEYDEMRGPSYRRFAAACARQPALFPPGLAFSYSNTGYCLLGAVIEAASGMDWWTAMDSCLLRPLGIEPAFLHDPRPGQGGAARPVAEGHALRAGGERAEHVDHMASLSLAAALGLVGSATDLVTAARPHLADRKTFAQHDLLPEDAVLAMRTCVPDAEPFGLADGWGLGLMRHGTGDGAWYGHDGAVGGASCNLRIHPDRSLALALTANSTAGPKLWEALVARLPEAGLDVGHYALPVPDSAPLAPDAGHLGTYANGDLELMVTHDAAGDLFLTRESYSDYRLSLHEDDLFVARSGEPGALPITGRFVREHPAGPVALLQYGGRAMHRL
On to B3, for which the “peptide cyclization (LC-MS of the reaction mixture)” value in data set [4] is “the substrate disappeared by an enzymatic reaction to generate a cyclized product (desprenylagaramide C)”.

B4: recombinant TycC-TE (protein)
chain: MGSSHHHHHHSSGLVPRGSHMGGSHKRFESRYGTAILLNQETARNVFCFTPIGAQSVYYQKLAAEIQGVSLYSFDFIQDDNRMEQYIAAITAIDPSGPYTLMGYSSGGNLAFEVAKELEERGYGVTDIILFDSYWKDKAIERTVAETENDIAQLFAEIGENTEMFNMTQEDFQLYAANEFVKQSFVRKTVSYVMFHNNLVNTGMTTAAIHLIQSELEADEEAPVAAKWNESAWANATQRLLTYSGHGIHSRMLAGDYASQNASILQNILQELFILKGSRSHHHHHH
Turning to B4, the “peptide cyclization (LC-MS of the reaction product)” value in data set [5] was “In an active TycC-TE containing system, it was confirmed that a cyclic peptide, i.e., tyrocidine A, and a small amount of substrate hydrolysate were generated”.
